T1: extracellular ActRIIb (SEQ ID NO: 74) fused to the N-terminus of hFc through a GGG linker (human, UniProt Q13705 20-134)
T1 construct: also called ActRIIb (41-155); wild-type extracellular ActRIIb; not shown: human Fc (hFc)
T1 sequence: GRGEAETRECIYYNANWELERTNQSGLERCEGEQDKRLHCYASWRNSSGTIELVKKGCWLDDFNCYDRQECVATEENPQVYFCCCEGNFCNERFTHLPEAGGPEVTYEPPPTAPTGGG

B1: extracellular ActRIIa (SEQ ID NO: 73) fused to the N-terminus of hFc through a GGG linker (Fc fusion)
chain: AILGRSETQECLFFNANWEKDRTNQTGVEPCYGDKDKRRHCFATWKNISGSIEIVKQGCWLDDINCYDRTDCVEKKDSPEVYFCCCEGNMCNEKFSYFPEMEVTQPTSGGG
notes: also called ActRIIa (19-127); wild-type extracellular ActRIIa; not shown: human Fc (hFc)
B2: BMP-9 (ligand, UniProt Q9UK05 320-429, looked up)
chain: SAGAGSHCQKTSLRVNFEDIGWDSWIIAPKEYEAYECKGGCFFPLADDVTPTKHAIVQTLVHLKFPTKVGKACCVPTKLSPISVLYKDDMGVPTLKYHYEGMSVAECGCR
notes: also called bone morphogenetic protein 9
B3: Activin A (ligand, UniProt P08476 311-426, looked up)
chain: GLECDGKVNICCKKQFFVSFKDIGWNDWIIAPSGYHANYCEGECPSHIAGTSGSSLSFHSTVINHYRMRGHSPFANLKSCCVPTKLRPMSMLYYDDGQNIIKKDIQNMIVEECGCS
B4: Activin B (ligand, UniProt P09529 293-407, looked up)
chain: GLECDGRTNLCCRQQFFIDFRLIGWNDWIIAPTGYYGNYCEGSCPAYLAGVPGSASSFHTAVVNQYRMRGLNPGTVNSCCIPTKLSTMSMLYFDDEYNIVKRDVPNMIVEECGCA
B5: growth differentiation factor 11 (GDF11) (ligand, UniProt O95390 299-407, looked up)
chain: NLGLDCDEHSSESRCCRYPLTVDFEAFGWDWIIAPKRYKANYCSGQCEYMFMQKYPHTHLVQQANPRGSAGPCCTPTKMSPINMLYFNDKQQIIYGKIPGMVVDRCGCS

How the values were obtained:
Activin B [1] = target: B4; assay: SPR, Biacore 3000; receptor fusion captured on chip, ligand in solution
Activin A [2] = target: B3; assay: as above
[3] = target: B1; assay: as above
[4] = target: T1, extracellular ActRIIb (SEQ ID NO: 74) …; assay: as above
BMP-9 = target: B2; assay: as above
[5] = target: B5; assay: as above
Activin B [6] = target: B4; assay: SPR, Biacore 3000; receptor fusion captured on the chip by antibody, ligand run in a concentration series
[7] = target: B5; assay: as above
Activin A [8] = target: B3; assay: as above

Kd (Activin B [1]) [nM] | Kd (Activin A [2]) [nM] | Kd (BMP-9) [nM] | Kd [5] [nM] | Binder | other results
0.373 | 1 | – | – | B1 | –
– | – | – | – | B2 | Kd [3]: 25 nM
– | – | – | – | B3 | Kd [4]: 0.063 nM
0.039 | 0.135 | 5 | 0.113 | ActRIIa/bmax2 (SEQ ID NO: 71) fused to the N-terminus of hFc through a GGG linker (Fc fusion, also called ActRIIa/bmax2 variant; not shown: human Fc (hFc)) GAILGRSETQECLFYNANWELERTNQTGVERCEGEKDKRLHCYATWRNISGSIEIVKKGCWLDDFNCYDRTDCVETEENPQVYFCCCEGNMCNEKFSYFPEMEVTQPTSNPGGG | –
0.0123 | 0.213 | 10 | 0.115 | extracellular ActRIIa/bΔ9 variant (SEQ ID NO: 58) fused to the N-terminus of hFc through a GGG linker (Fc fusion, also called ActRIIA/BΔ9-Fc; not shown: human Fc (hFc)) GAILGRSETQECLFYNANWELDRTNQTGVERCEGEKDKRLHCYATWRNISGSIEIVKKGCWLDDFNCYDRTDCVETKENPQVYFCCCEGNMCNEKFSYFPEMEVTQPTSGGG | –
0.088 | 0.31 | 17 | 0.114 | extracellular ActRIIa/bΔ9 min variant (SEQ ID NO: 6) fused to the N-terminus of hFc through a GGG linker (Fc fusion, not shown: human Fc (hFc)) GAILGRSETQECLFYNANWELDRTNQTGVEPCEGEKDKRLHCFATWKNISGSIEIVKKGCWLDDINCYDRTDCVETKENPQVYFCCCEGNMCNEKFSYFPEMEVTQPTSGGG | –
0.282 | 0.242 | 26 | – | ActRIIa/b+ (SEQ ID NO: 150) fused to the N-terminus of hFc through a GGG linker (Fc fusion, also called ActRIIab+ variant; not shown: human Fc (hFc)) GAILGRSETQECLFYNANWELERTNQTGVERCEGEKDKRLHCYATWRNISGSIEIVAKGCWLDDFNCYDRTDCVETEENPQVYFCCCEGNMCNEKFSYFPEMEVTQPTSGGG | –
0.104 | 0.17 | 13 to 18 | 0.222 | ActRIIa/b-delta 9m2 (SEQ ID NO: 38) fused to the N-terminus of hFc through a GGG linker (Fc fusion, also called ActRIIa/bΔ9m2 variant; not shown: human Fc (hFc)) GAILGRSETQECLFYNANWELDRTNQTGVERCEGEKDKRLHCYATWRNISGSIEIVKKGCWLDDINCYDRTDCVETKENPQVYFCCCEGNMCNEKFSYFPEMEVTQPTSGGG | –
0.0725 | 0.071 | 1.2 | 0.117 | ActRIIa/b-delta 9m3 (SEQ ID NO: 41) fused to the N-terminus of hFc through a GGG linker (Fc fusion, also called ActRIIa/bΔ9m3 variant; not shown: human Fc (hFc)) GAILGRSETQECLFYNANWELDRTNQTGVERCEGEKDKRLHCFATWRNISGSIEIVKKGCWLDDFNCYDRTDCVETKENPQVYFCCCEGNMCNEKFSYFPEMEVTQPTSGGG | –
0.097 | 0.232 | 5.6 | 0.236 | ActRIIa/bmax1 (SEQ ID NO: 70) fused to the N-terminus of hFc through a GGG linker (Fc fusion, also called ActRIIa/bmax1 variant; not shown: human Fc (hFc)) GAILGRSETQECLYYNANWELERTNQTGVERCEGEQDKRLHCYATWRNISGSIEIVKKGCWLDDFNCYDRTDCVETEENPQVYFCCCEGNMCNEKFSYFPEMEVTQPTSGGG | –
0.103 | 0.542 | 4 | 0.186 | extracellular ActRIIa/b variant (SEQ ID NO: 69) fused to the N-terminus of hFc through a GGG linker (Fc fusion, also called ActRIIA/B-Fc; not shown: human Fc (hFc)) GAILGRSETQECLFYNANWELERTNQTGVERCEGEKDKRLHCYATWRNISGSIEIVKKGCWLDDFNCYDRTDCVETEENPQVYFCCCEGNMCNEKFSYFPEMEVTQPTSGGG | –
0.254 | 0.375 | 14 to 20 | 0.394 | ActRIIa/b-delta 9m4 (SEQ ID NO: 44) fused to the N-terminus of hFc through a GGG linker (Fc fusion, also called ActRIIa/bΔ9m4 variant; not shown: human Fc (hFc)) GAILGRSETQECLFYNANWELDRTNQTGVEPCEGEKDKRLHCYATWRNISGSIEIVKKGCWLDDFNCYDRTDCVETKENPQVYFCCCEGNMCNEKFSYFPEMEVTQPTSGGG | –
0.043 | 0.089 | 3.3 | 0.214 | ActRIIa/bmax3 variant (SEQ ID NO: 72) fused to the N-terminus of hFc through a GGG linker (Fc fusion, not shown: human Fc (hFc)) GAILGRSETQECLFYNANWELERTNQTGVERCEGEKDKRLHCYATWRNISGSIEIVKKGCWLDDFNCYDRTDCVETEENPQVYFCCCEGNMCNEKFSYFPEMEVTQPTSNPVTPKGGG | –
– | – | – | – | B4 | Kd [4]: 0.023 nM
– | – | – | – | B5 | Kd [3]: 0.081 nM
– | – | – | – | extracellular ActRIIb variant (SEQ ID NO: 149) fused to the N-terminus of hFc through a GGG linker (Fc fusion, also called ActRIIb/a variant; ActRIIb/a; not shown: human Fc (hFc)) GRGEAETRECIFYNANWEKDRTNQSGLEPCYGDQDKRRHCFASWKNSSGTIELVKQGCWLDDINCYDRQECVAKKDSPEVYFCCCEGNFCNERFTHLPEAGGPEVTYEPPPTAPTGGG | binding result (Activin B [6]): no binding; binding result [7]: no binding; binding result (Activin A [8]): no binding

Source: patent US20190345225A1 (KEROS THERAPEUTICS, published 2019)
